This series concerns Escherichia coli TOP10. Description: shrunken log2 fold change of peptide-encoding DNA abundance (4.5 h post-induction vs induction); higher = less antimicrobial activity (less host growth inhibition). As to conditions: time post-induction: 4.5 h; library: site-saturation at positions 5, 18, 19, 20.
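Further: peptides expressed intracellularly from a pBAD plasmid library in pooled LB shake-flask culture, induced with 0.3% L-arabinose, DNA abundance read by NGS, three biological replicates, DESeq2 with apeglm shrinkage.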

On to RRIRPRPPRLPRPRPRPRLSPRP, for which the “shrunken log2 fold change” value amounted to 0.306.

As to RRIRMRPPRLPRPRPRPSTEPRP, the “shrunken log2 fold change” value turned out to be 1.63.

As to RRIRGRPPRLPRPRPRPFVDPRP, the “shrunken log2 fold change” value worked out at 0.571.

Turning to RRIRFRPPRLPRPRPRPCKCPRP, the “shrunken log2 fold change” value is -0.317.

For the sequence RRIRYRPPRLPRPRPRPNSHPRP, the “shrunken log2 fold change” value is -0.839.

For the sequence RRIRVRPPRLPRPRPRPLQYPRP, the “shrunken log2 fold change” value was 1.72.

As to RRIRNRPPRLPRPRPRPGWLPRP, the “shrunken log2 fold change” value turned out to be 0.174.

On to RRIRGRPPRLPRPRPRPMFLPRP, for which the “shrunken log2 fold change” value is -0.0125.

Take RRIRTRPPRLPRPRPRPLCGPRP: the “shrunken log2 fold change” value came out at 0.0512.

For RRIRFRPPRLPRPRPRPMTSPRP, the “shrunken log2 fold change” value is -0.552.

In the case of RRIRVRPPRLPRPRPRPKVPPRP, the “shrunken log2 fold change” value is -0.00247.

Turning to RRIRDRPPRLPRPRPRPIKNPRP, the “shrunken log2 fold change” value is -0.158.

Consider RRIRTRPPRLPRPRPRPERDPRP, for which the “shrunken log2 fold change” value was determined as 0.0175.

RRIRRRPPRLPRPRPRPTEVPRP: the “shrunken log2 fold change” value amounted to 0.238.

RRIRNRPPRLPRPRPRPRYDPRP: the “shrunken log2 fold change” value is -0.494.

For the sequence RRIRARPPRLPRPRPRPMQAPRP, the “shrunken log2 fold change” value is -0.00917.

With RRIRMRPPRLPRPRPRPKNAPRP, the “shrunken log2 fold change” value amounted to 0.901.

In the case of RRIRPRPPRLPRPRPRPIAPPRP, the “shrunken log2 fold change” value came to 0.265.

As to RRIRLRPPRLPRPRPRPMHEPRP, the “shrunken log2 fold change” value is -0.0688.

In the case of RRIRFRPPRLPRPRPRPVICPRP, the “shrunken log2 fold change” value was 0.0508.

Take RRIRTRPPRLPRPRPRPPWIPRP: the “shrunken log2 fold change” value came out at 0.161.

On to RRIRDRPPRLPRPRPRPVGGPRP, for which the “shrunken log2 fold change” value is 2.15.

RRIRQRPPRLPRPRPRPLYIPRP: the “shrunken log2 fold change” value is -0.659.

As for RRIRVRPPRLPRPRPRPGLHPRP, the “shrunken log2 fold change” value was -0.0936.

Take RRIRFRPPRLPRPRPRPGMTPRP: the “shrunken log2 fold change” value is -0.142.

On to RRIRTRPPRLPRPRPRPHLAPRP, for which the “shrunken log2 fold change” value was found to be 0.159.

As to RRIRSRPPRLPRPRPRPLYIPRP, the “shrunken log2 fold change” value is -0.276.

On to RRIRNRPPRLPRPRPRPMIDPRP, for which the “shrunken log2 fold change” value was -0.0621.

As for RRIRTRPPRLPRPRPRPGFWPRP, the “shrunken log2 fold change” value turned out to be 0.199.

Turning to RRIRERPPRLPRPRPRPMALPRP, the “shrunken log2 fold change” value is -0.0232.

Regarding RRIRERPPRLPRPRPRPHFMPRP, the “shrunken log2 fold change” value is -0.221.

On to RRIRARPPRLPRPRPRPPFTPRP, for which the “shrunken log2 fold change” value amounted to 0.3.

With RRIRIRPPRLPRPRPRPTCCPRP, the “shrunken log2 fold change” value was found to be 0.111.

Take RRIRSRPPRLPRPRPRPSREPRP: the “shrunken log2 fold change” value is -0.173.

As for RRIRIRPPRLPRPRPRPDSAPRP, the “shrunken log2 fold change” value was -0.194.

As for RRIRYRPPRLPRPRPRPQLEPRP, the “shrunken log2 fold change” value is -0.418.

Turning to RRIRHRPPRLPRPRPRPANFPRP, the “shrunken log2 fold change” value was -0.0325.

For the sequence RRIRPRPPRLPRPRPRPAIAPRP, the “shrunken log2 fold change” value amounted to 0.194.

Consider RRIRCRPPRLPRPRPRPMYLPRP, for which the “shrunken log2 fold change” value is -0.464.

Regarding RRIRTRPPRLPRPRPRPNGWPRP, the “shrunken log2 fold change” value worked out at 0.215.

Regarding RRIRHRPPRLPRPRPRPIQNPRP, the “shrunken log2 fold change” value is -0.252.

Take RRIRCRPPRLPRPRPRPMCAPRP: the “shrunken log2 fold change” value was found to be 0.0886.

On to RRIRARPPRLPRPRPRPFYKPRP, for which the “shrunken log2 fold change” value is -0.009.

Take RRIRIRPPRLPRPRPRPIGSPRP: the “shrunken log2 fold change” value was -0.0175.

As for RRIRFRPPRLPRPRPRPPHMPRP, the “shrunken log2 fold change” value was -0.137.

In the case of RRIRNRPPRLPRPRPRPVSLPRP, the “shrunken log2 fold change” value is -0.396.

RRIRDRPPRLPRPRPRPLPTPRP: the “shrunken log2 fold change” value turned out to be 0.358.

As for RRIRVRPPRLPRPRPRPHARPRP, the “shrunken log2 fold change” value is 0.0538.

Consider RRIRYRPPRLPRPRPRPTVQPRP, for which the “shrunken log2 fold change” value came to 0.028.

In the case of RRIRPRPPRLPRPRPRPHNMPRP, the “shrunken log2 fold change” value was -0.745.

Source of the values: the supplement of paper PMC9112550, “Optimization of the antimicrobial peptide Bac7 by deep mutational scanning” (BMC Biology, 2022).
